For assay [1], the target named is T1, CD39-M2 extracellular domain recombinant protein (soluble recombinant human CD39 with M2 tag) (human, UniProt P49961 38-478, limits assumed).
T1 sequence: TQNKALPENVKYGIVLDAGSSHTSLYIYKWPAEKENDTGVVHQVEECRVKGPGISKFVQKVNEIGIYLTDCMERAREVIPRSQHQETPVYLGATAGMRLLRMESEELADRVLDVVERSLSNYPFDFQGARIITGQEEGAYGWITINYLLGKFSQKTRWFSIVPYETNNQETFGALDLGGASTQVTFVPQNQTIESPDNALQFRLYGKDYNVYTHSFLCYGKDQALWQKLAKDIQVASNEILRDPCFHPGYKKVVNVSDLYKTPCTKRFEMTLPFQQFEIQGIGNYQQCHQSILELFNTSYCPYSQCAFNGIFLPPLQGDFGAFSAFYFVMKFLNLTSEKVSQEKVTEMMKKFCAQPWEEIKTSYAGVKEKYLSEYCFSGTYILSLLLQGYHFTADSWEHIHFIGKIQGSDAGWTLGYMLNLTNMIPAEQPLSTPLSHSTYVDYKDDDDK
The assay is described as follows: cell-based or functional assay.

In assay [2] the target is T2, human CD39 expressed at the cell surface (human, UniProt P49961 1-510).
T2 sequence: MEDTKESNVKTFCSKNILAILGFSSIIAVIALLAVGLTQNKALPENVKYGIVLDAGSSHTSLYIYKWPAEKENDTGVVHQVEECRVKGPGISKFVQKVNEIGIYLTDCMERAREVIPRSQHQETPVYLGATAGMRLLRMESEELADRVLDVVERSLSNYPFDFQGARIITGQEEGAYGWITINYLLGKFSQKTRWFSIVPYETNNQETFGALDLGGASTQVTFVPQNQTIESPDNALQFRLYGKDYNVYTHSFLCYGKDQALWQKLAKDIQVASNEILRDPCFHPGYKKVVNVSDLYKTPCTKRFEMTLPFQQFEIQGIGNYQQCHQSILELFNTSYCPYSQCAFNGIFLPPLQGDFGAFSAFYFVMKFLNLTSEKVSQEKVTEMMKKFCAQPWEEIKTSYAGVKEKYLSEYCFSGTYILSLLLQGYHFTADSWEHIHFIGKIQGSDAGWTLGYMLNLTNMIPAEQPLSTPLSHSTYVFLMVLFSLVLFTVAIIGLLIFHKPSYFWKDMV
The assay is described as follows: cell-based or functional assay.

Assay [3] addresses T3, Human CD39-L3, also known as NTPDase3 or ENTPD3 (human, UniProt O75355 44-485, limits assumed).
T3 construct: Recombinant protein coated in ELISA
T3 sequence: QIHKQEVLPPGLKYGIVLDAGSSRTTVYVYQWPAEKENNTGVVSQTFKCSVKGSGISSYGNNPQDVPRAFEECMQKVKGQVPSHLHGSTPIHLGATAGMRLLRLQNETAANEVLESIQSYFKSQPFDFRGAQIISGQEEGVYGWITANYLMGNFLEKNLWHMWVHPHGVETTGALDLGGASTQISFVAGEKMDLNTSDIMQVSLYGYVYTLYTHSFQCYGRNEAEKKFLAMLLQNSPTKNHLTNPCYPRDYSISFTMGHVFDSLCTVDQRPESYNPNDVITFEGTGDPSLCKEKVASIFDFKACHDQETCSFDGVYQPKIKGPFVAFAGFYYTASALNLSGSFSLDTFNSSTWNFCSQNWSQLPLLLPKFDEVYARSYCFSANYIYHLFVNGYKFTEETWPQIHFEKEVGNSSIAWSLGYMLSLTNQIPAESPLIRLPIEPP
The assay is described as follows: ELISA on coated recombinant human CD39-L3, panel huCD39 L3; no legend on the sheet, curve is I-394 by paragraph 85. As for the experimental part:
Wells were washed in TBS Tween 20, and further saturated 2H at RT in TBS Blocking buffer. Dose range concentration of primary antibody was incubated in TBS blocking buffer for 2 h at RT. Wells were washed in TBS Tween 20. […] Optical density was measured on Enspire™ at OD=450.
(In an ELISA, binding on a coated surface is turned into a signal by an enzyme label.)

A further assay deals with T4, murine CD39 on CHO cells (murine, UniProt P55772 1-510).
T4 construct: whole, on cells; also called CHO-moCD39; moCD39
T4 sequence (looked up): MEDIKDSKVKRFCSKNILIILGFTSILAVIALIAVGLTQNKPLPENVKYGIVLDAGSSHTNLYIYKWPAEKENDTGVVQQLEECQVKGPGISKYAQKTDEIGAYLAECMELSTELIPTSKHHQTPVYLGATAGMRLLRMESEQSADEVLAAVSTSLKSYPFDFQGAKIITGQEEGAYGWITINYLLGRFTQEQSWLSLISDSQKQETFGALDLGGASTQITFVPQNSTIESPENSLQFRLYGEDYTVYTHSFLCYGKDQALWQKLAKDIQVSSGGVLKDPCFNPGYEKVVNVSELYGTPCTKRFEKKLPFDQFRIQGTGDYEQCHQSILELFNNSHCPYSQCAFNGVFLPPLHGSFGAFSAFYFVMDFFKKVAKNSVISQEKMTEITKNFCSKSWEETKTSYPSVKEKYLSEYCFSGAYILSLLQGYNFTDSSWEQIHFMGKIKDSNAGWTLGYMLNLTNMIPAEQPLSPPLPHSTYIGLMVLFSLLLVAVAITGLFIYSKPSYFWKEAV
The experiment in a line: flow cytometry titration on CHO cells expressing murine CD39 (Mediane of Fluo), panel CHO-moCD39. As for the experimental part:
(§1) Cells were incubated with various concentration of unlabeled anti-CD39 antibody from 30 μg/ml to 5×10⁻⁴ μg/ml, for 30 minutes at 4° C. After washes, cells were incubated with Goat anti-mouse H+L labeled secondary antibody for 30 min at 4° C.
In general terms: A flow cytometer gives signals particle by particle.

Assay [4] addresses T5, cynomolgus (Macaca fascicularis) CD39 on CHO cells (cynomolgus (Macaca fascicularis), UniProt A0A7N9DGH8 1-510).
T5 construct: whole, on cells; also called CHO-cyCD39; cyCD39
T5 sequence: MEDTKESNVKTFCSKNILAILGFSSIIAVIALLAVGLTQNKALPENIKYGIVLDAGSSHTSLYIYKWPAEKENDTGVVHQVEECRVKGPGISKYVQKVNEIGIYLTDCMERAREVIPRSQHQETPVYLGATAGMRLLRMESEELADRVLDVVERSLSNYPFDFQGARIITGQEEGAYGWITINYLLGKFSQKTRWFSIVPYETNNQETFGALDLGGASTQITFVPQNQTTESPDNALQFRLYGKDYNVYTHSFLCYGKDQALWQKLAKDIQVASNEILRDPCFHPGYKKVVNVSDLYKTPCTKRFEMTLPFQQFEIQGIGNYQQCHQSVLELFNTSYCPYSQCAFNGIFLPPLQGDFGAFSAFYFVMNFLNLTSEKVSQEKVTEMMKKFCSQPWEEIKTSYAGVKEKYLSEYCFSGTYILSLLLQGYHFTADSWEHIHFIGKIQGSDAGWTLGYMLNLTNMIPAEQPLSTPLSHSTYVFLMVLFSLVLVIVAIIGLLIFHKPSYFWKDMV
The experiment in a line: flow cytometry titration on CHO cells expressing cynomolgus CD39 (Mediane of Fluo), panel CHO-cyCD39. Here is the method: as §1

B1: I-394 (antibody, human IgG1, V domains shown)
VH: EVQLQQSGPELVKPGASVKMSCKASGYTFTDYNMHWVKQSHGRTLEWIGYIVPLNGGSTFNQKFKGRATLTVNTSSRTAYMELRSLTSEDSAAYYCARGGTRFAYWGQGTLVTVSA
VL: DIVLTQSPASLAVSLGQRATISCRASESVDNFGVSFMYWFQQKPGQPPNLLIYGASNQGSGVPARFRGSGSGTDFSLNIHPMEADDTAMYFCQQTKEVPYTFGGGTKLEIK
The EC50 (read off the curve) is the concentration giving half of the maximal effect. Read a high EC50 (read off the curve) as a need for much substance. B1: the “IC50, inhibition of ATPase activity of soluble CD39” value in assay [1] came out at 0.003 µg/mL. The “IC50, inhibition of CD39 ATPase activity in Ramos cells” value in assay [2] came out at 0.05 µg/mL. Further, the binding result in assay [3] was “no binding (tested: about 50 µg/ml)”; with murine CD39 on CHO cells, “no binding (tested: about 30 µg/ml)”. The concentration for a half-maximal effect (EC50 (read off the curve)) in assay [4] is roughly 0.4 µg/mL.

For the origin of these results see patent publication US20230025732A1 (INNATE PHARMA, published 2023).
